From PMC7427792, “CryoEM structure of the low-complexity domain of hnRNPA2 and its conversion to pathogenic amyloid” (Nature Communications, 2020)

Legend:
[1] = target: the molecule itself; test: crystal structure; hanging-drop vapour diffusion; segment 9.69 mg ml^-1 in water with 31 mM lithium hydroxide; reservoir 0.15 M ammonium acetate, 35% MPD, 0.1 M Bis-Tris pH 5.5
[2] = target: the molecule itself; test: X-ray fibre diffraction; mC-hnRNPA2-LCD hydrogel (~60 mg ml^-1, 4 °C) air-dried between two capillary glass rods; 100 K

Protein	binding result [1]	binding result [2]
GNYNVF (hexamer segment 286-291 of human hnRNPA2 LCD with the disease variant D290V (multisystem proteinopathy); numbers count on the 341-residue hnRNPA2 (isoform A2); also called mutant segment; disease-causing mutant core segment) [hnRNPA2 mutant core segment GNYNVF (286-291, D290V)]	binds	–
mCherry-hnRNPA2-LCD fusion protein (domain or fragment, human, UniProt P22626-2 181-341, looked up, hnRNPA2 C-terminal low-complexity domain (LCD), human, residues 181-341 of the 341-residue protein (161 residues); printed length 341 = isoform A2 of HNRNPA2B1; Only Gly263-Tyr319 is ordered in the fibril core; also called mC-hnRNPA2-LCD; mCh-hnRNPA2-LCD; source: E. coli BL21(DE3), purified (HisTrap HP column, in 2 M guanidine HCl), dialysed and concentrated; not shown: mCherry, N-terminal, kept) MQEVQSSRSGRGGNFGFGDSRGGGGNFGPGPGSNFRGGSDGYGSGRGFGDGYNGYGGGPGGGNFGGSPGYGGGRGGYGGGGPGYGNQGGGYGGGYDNYGGGNYGSGNYNDFGNYNQQPSNYGPMKSGNFGGSRNMGGPYGGGNYGPGGSGGSGGYGGRSRY	–	binds
